# From publication PMC5640227
# B1: Human Respiratory Syncytial Virus Matrix (M) protein, GAL4 fusion (natural protein)
# chain: METYVNKLHEGSTYTAAVQYNVLEKDDDPASLTIWVPMFQSSMPADLLIKELANVNILVKQISTPKGPSLRVMINSRSAVLAQMPSKFTICANVSLDERSKLAYDVTTPCEIKACSLTCLKSKNMLTTVKDLTMKTLNPTHDIIALCEFENIVTSKKVIIPTYLRSISVRNKDLNTLENITTTEFKNAITNAKIIPYSGLLLVITVTDNKGAFKYIKPQSQFIVDLGAYLEKESIYYVTTNWKHTATRFAIKPMED
# Experiments:
# [1] = molecular target: Human Respiratory Syncytial Virus Matrix (M) protein, GAL4 fusion (Human Respiratory Syncytial Virus) (UniProt P0DOE7); experiment: two-hybrid
# [2] = molecular target: Adaptor protein complex 3 medium subunit (AP-3Mu3A), GAL4 fusion (human (HeLa cDNA library)) (UniProt Q9Y2T2); experiment: two-hybrid
# UniProt Q9Y2T2, sequence (Q9Y2T2 whole entry, the tested form may be a part, one chain of several): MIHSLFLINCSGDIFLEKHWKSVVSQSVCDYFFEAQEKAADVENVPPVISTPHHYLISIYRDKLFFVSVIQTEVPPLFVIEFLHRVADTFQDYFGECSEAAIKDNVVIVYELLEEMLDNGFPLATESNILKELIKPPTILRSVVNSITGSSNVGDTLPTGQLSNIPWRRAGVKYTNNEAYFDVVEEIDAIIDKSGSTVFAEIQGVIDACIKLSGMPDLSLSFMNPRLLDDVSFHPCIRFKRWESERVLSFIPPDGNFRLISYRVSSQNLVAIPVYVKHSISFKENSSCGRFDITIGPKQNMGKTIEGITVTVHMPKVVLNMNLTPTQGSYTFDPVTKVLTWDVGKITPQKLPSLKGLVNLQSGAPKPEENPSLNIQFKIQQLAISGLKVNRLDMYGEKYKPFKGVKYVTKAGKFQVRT
Molecule,beta-Galactosidase activity [1],beta-Galactosidase activity [2]
"Adaptor protein complex 3 medium subunit (AP-3Mu3A), GAL4 fusion (from UniProt Q9Y2T2 1-418) (natural protein)",458 units,–
B1,–,420 units
